# According to the supplement of paper PMC10126150:
# ± gives the standard deviation of the averaged measurements.
# Tested on: ATP
# Test: switch fluorescence ratio, 500 uM ATP over buffer (Cy3 cluster intensity, sum of 5 cycles each) (fold (ratio)); higher = stronger signal-on switching upon ATP binding; sequences stand for … in TCGTCGGCAGCGTCAGATGTGTATAAGAGACAGTTTTTTTTTTTTTTTTTTTTTTTTT…TC
# Conditions: aptamer strand: ATP DNA aptamer (quencher-CACCTGGGGGAGTATTGCGGAGGAAGG + anchor), 100 nM annealed; ATP concentration: 500 uM
# Procedure, shortened: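 Cy3-labelled switching-strand clusters on a modified Illumina MiSeq flow-cell were annealed to 100 nM quencher-labelled ATP aptamer, imaged in selection buffer, then imaged after 15 min with 500 uM ATP at 22 °C. Five buffer/ATP cycles ran, with NaOH stripping and re-annealing between them. The fluorescence ratio is summed target-cycle over summed buffer-cycle Cy3 intensity per cluster, averaged per switch-domain sequence. Clusters outside 100-1000 RFU were excluded.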
# 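Further: ATP exposure 15 min at 22 °C before imaging.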
row,Sequence,switch fluorescence ratio
1,GTTCTTCAGA,0.9705 ± 0.0056
2,CGTCGAGGCG,0.971 ± 0.035
3,ACGGTGTCAC,0.9774 ± 0.0012
4,TGAGGGCTTT,1.013 ± 0.0023
5,AACCGCTTGG,0.995 ± 0.056
6,GTGTTTGTGG,0.966 ± 0.033
7,CCTGGGTTTC,1.008 ± 0.0052
8,TAAGCAGTGG,1.02 ± 0.022
9,GATGGTGAAA,0.975 ± 0.039
10,GAATGGCCTT,0.9949 ± 0.0072
11,GGCCACGTAG,1.02 ± 0.022
12,TAAGGGGAAC,1.01 ± 0.03
13,GTCACCAGGG,1.58 ± 0.082
14,TAACATTTTT,1 ± 0.022
15,TTTGTGATTG,0.985 ± 0.094
16,AGGAGGAAAG,0.987 ± 0.028
17,TCACAGGATA,1.021 ± 0.0056
18,TAGAGGTG,1.11 ± 0.016
19,TAATTTGGA,0.9652 ± 0.004
20,GGAGAGGGTA,1.01 ± 0.035
21,TGCTGCAAAG,0.9943 ± 0.0049
22,AGGACTGGTG,1.01 ± 0.044
23,CGGGCTACTA,1.05 ± 0.016

row,Sequence,switch fluorescence ratio
1,GGGGTGAAGT,1.04 ± 0.017
2,TGGGGG,1 ± 0.033
3,AGTTGAAGGA,0.986 ± 0.027
4,GGGTTTGAAA,1.01 ± 0.067
5,GATGTGCAGA,0.959 ± 0.038
6,TTTTATGGAG,0.998 ± 0.013
7,AATAGGGGAG,1 ± 0.037
8,CATACAGGGG,1.44 ± 0.067
9,TATGACAGGA,0.995 ± 0.011
10,CGCCGAATCT,0.961 ± 0.042
11,GGGTTAAGAG,1.01 ± 0.02
12,TGTGCTATGG,1.01 ± 0.02
13,ATTTCTAATT,1.07 ± 0.15
14,GTGGTAACTT,1.007 ± 0.0082
15,TAGAAAAATT,0.993 ± 0.015
16,ATTGGAAGTT,0.997 ± 0.014
17,CGGGGATCGG,0.984 ± 0.011
18,GTTGGGTTCC,1.02 ± 0.02
19,ATGATAGGGG,0.998 ± 0.023
20,TTTGGTTGTT,0.988 ± 0.019
21,TTTAGCTGGT,0.986 ± 0.033
22,AGACAGAGGG,0.988 ± 0.012
23,TTAATGAATA,1.01 ± 0.035

row,Sequence,switch fluorescence ratio
1,TAGGGAAGGT,1.01 ± 0.034
2,CCGGGTAGTT,1.02 ± 0.074
3,CATATTGCTT,0.993 ± 0.028
4,GACCATGTAC,1.48 ± 0.1
5,ACTAACTTTC,1.1 ± 0.097
6,TGAGGGTGGG,1.01 ± 0.058
7,TTGGTGTAGC,0.972 ± 0.026
8,ATTAATAGCT,1.05 ± 0.0049
9,TTTCGCAACG,1.09 ± 0.047
10,CACGTCGGTA,1.01 ± 0.015
11,TTGGGGGGT,1.06 ± 0.012
12,GGTGACTATT,0.979 ± 0.037
13,GGAGTACCGG,1.01 ± 0.049
14,ACAAATGGGA,1.02 ± 0.044
15,TTCCTCCCGT,2.01 ± 0.95
16,GCCAAATTAG,0.956 ± 0.011
17,TTAAAAGGGG,1.01 ± 0.044
18,TCTATGAAAA,0.9818 ± 0.004
19,AATTAGTTGG,0.9923 ± 0.0071
20,GAAGTGCGGA,0.9795 ± 0.0061
21,GAGGTTGG,1.02 ± 0.017
22,AATTAATGAT,0.981 ± 0.029
23,CACTTTTGTA,1.01 ± 0.012

row,Sequence,switch fluorescence ratio
1,TTTTTTATGG,1.01 ± 0.031
2,TCCGTTGTGG,0.991 ± 0.037
3,ATGTGTGGTT,1.12 ± 0.15
4,TGGGGGTCAT,1.05 ± 0.061
5,TTCGGGGGTT,1.01 ± 0.051
6,TGTTTTAAAG,1.01 ± 0.061
7,AGGTAGGGCT,1 ± 0.029
8,CGATAGGTGG,0.975 ± 0.094
9,TGAAATGGGA,1.0074 ± 0.00077
10,CGGGGGCGCC,1.02 ± 0.031
11,TCAACGAAGA,1.01 ± 0.018
12,TTTCTATTTG,1.02 ± 0.029
13,TGCGTGGTGG,1.03 ± 0.019
14,AGGTTGATGG,0.954 ± 0.043
15,AAGATGGGGG,0.998 ± 0.033
16,ACATGCGTGG,0.992 ± 0.022
17,AGGAAAGTTT,0.955 ± 0.028
18,AACATTAAAT,1.1 ± 0.1
19,TGCTTCGACG,0.9996 ± 0.0012
20,GATCTTATCT,1.03 ± 0.022
21,TAGCACTGAG,1.05 ± 0.043
22,CGGGATATGG,1.03 ± 0.045
23,CAAATAGCTA,1.0363 ± 0.00014

row,Sequence,switch fluorescence ratio
1,CGCATAGGCC,1.77 ± 0.2
2,CGGTAGCTCT,0.989 ± 0.037
3,TACTGAGACA,1.074 ± 0.0066
4,CCAAGTTCGG,1.02 ± 0.011
5,CTTGGGAGGG,0.992 ± 0.029
6,AGCGAGGGA,1.029 ± 0.0068
7,ATCTGGTAAT,1.005 ± 0.0031
8,GGTAGGGAAC,0.975 ± 0.029
9,GAGGTGCCAG,0.992 ± 0.031
10,AAGCAAAGGT,1.02 ± 0.027
11,TTGCTACAGT,1.01 ± 0.019
12,TTGAATTGGT,0.995 ± 0.036
13,AAATCGTAGG,0.963 ± 0.054
14,GTTGTGTGAT,0.982 ± 0.027
15,TGTTGCCGAT,0.986 ± 0.019
16,TTGACTAGCT,1.08 ± 0.09
17,CGGGGTCGGT,0.963 ± 0.021
18,GCGGCCGGGG,0.999 ± 0.024
19,TATATTGGGC,0.968 ± 0.049
20,TTTTGGTGTG,1.01 ± 0.026
21,ACGGGGGACA,1.02 ± 0.035
22,CGAAGTGTTT,1 ± 0.02
23,GGGGGACGAC,0.969 ± 0.035

row,Sequence,switch fluorescence ratio
1,TAGGGTTGTA,0.991 ± 0.04
2,GGAGGGGGTG,0.989 ± 0.044
3,CGTGTCGCTG,0.971 ± 0.024
4,GCAGGTGACT,1.33 ± 0.077
5,TGCAAAGGTG,1.34 ± 0.094
6,TCGGGTAAGA,1.04 ± 0.026
7,TATTGGGCGG,1.01 ± 0.045
8,GAATAGGGGG,1.013 ± 0.0094
9,TTACCCGGAA,1.9 ± 0.048
10,AATTTGTAGT,1.03 ± 0.025
11,GTAGGGGTAC,1.47 ± 0.72
12,TAGAAGTATT,1.01 ± 0.027
13,ATATTTTTGT,1.03 ± 0.014
14,TTTCTAAGTT,1.03 ± 0.021
15,TATGTCGGCC,0.975 ± 0.069
16,TTCGTAGGGC,1.01 ± 0.055
17,CGTAGGCCGA,0.952 ± 0.068
18,CTAGGCAACG,0.982 ± 0.028
19,GGCACATGGG,1.01 ± 0.028
20,TAGGAACGAG,1 ± 0.024
21,TTAAGGTATG,0.997 ± 0.019
22,CGGGTAATAG,1.46 ± 0.16
23,GCAAGGCGAG,1.3 ± 0.031

row,Sequence,switch fluorescence ratio
1,AGACGTTATT,1.15 ± 0.1
2,GTTGAGGGGG,1.01 ± 0.047
3,GGATCATTTA,1.03 ± 0.042
4,TCTCTGGCAG,1.17 ± 0.17
5,CCTTTAAAAT,1.4 ± 0.41
6,TTTGGAAGGA,0.998 ± 0.04
7,GAAAGAGATG,1.003 ± 0.008
8,AAAATAGGCC,1.02 ± 0.013
9,TTTACTAAGG,1.03 ± 0.02
10,TCGCGTTCGG,1.02 ± 0.013
11,ATTCCTTTGT,1.01 ± 0.026
12,GGGTGCTGCG,1.01 ± 0.037
13,TTTCTAAATC,0.979 ± 0.01
14,GGGCAGGGGT,1.45 ± 0.84
15,TGTTTACGGT,0.983 ± 0.032
16,CGATATCGC,1.03 ± 0.014
17,GGAGTGTGTG,0.96 ± 0.044
18,TAGGTGGGGA,1.01 ± 0.023
19,AGGGAAGATA,0.998 ± 0.014
